Test results from PMC10691131, “Self S-RNase reduces the expression of two pollen-specific COBRA genes to inhibit pollen tube growth in pear”.

T1: PbC2H2.K16.2 (pear, UniProt UPI0005117FCC 5-185)
T1 sequence: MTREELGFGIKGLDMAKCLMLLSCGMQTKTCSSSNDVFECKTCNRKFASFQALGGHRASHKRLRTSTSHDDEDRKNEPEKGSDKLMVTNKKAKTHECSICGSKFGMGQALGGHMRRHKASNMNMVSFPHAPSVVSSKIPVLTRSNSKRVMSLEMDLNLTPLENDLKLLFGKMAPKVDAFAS

B1: PbCOB.A.1 promoter probe (dsDNA)
DNA 1: TTCGAGGTTTTTGGTCCAGAAAGAAGAAGA
DNA 2: TCTTCTTCTTTCTGGACCAAAAACCTCGAA
B2: PbCOB.A.2 promoter probe (PbC2H2.K16.2) (dsDNA)
DNA 1: TAAAAACATGATTGGTCCAATGCAAGTTAT
DNA 2: ATAACTTGCATTGGACCAATCATGTTTTTA

Biological target: T1, PbC2H2.K16.2
Assay: EMSA; 10x and 100x cold probe weakens signal; Buffer, salt, pH and temperature not stated; EMSA per Guo et al. 2021, MST per Singh et al. 2014 (Monolith NT.115)
Conditions: protein: recombinant; tags: His; label: 5' biotin (EMSA)

Row | Binder | binding result
1 | B1 | binds
2 | B2 | binds
